Data published in article PMC7948503, “Optimization of a peptide ligand for the adhesion GPCR ADGRG2 provides a potent tool to explore receptor biology” (The Journal of Biological Chemistry, 2020).
Non-standard residues stand in square brackets, D forms with d. Residues, ends and D or L forms follow the SMILES beside them. Primed or numbered codes have the meaning given here. No end group written: not given here. Phe(4-Me) = Cc1ccc(C[C@H](N)C(=O)O)cc1; FITC′ = not defined here

Experiments:
[1] = molecular target: T1, ADGRG2-ΔGPS-β (Mus musculus, UniProt Q8CJ12); experiment: GloSensor cAMP assay, HEK293 transfected with ADGRG2-ΔGPS-β; type: cell-based
T1 construct: the entire ECD (including the entire GPS motif) was removed (ADGRG2-ΔGPS-β); expressed in transfected cells; host or cells: HEK293
T1 sequence (Q8CJ12 618-1009 limits assumed, stated change not applied): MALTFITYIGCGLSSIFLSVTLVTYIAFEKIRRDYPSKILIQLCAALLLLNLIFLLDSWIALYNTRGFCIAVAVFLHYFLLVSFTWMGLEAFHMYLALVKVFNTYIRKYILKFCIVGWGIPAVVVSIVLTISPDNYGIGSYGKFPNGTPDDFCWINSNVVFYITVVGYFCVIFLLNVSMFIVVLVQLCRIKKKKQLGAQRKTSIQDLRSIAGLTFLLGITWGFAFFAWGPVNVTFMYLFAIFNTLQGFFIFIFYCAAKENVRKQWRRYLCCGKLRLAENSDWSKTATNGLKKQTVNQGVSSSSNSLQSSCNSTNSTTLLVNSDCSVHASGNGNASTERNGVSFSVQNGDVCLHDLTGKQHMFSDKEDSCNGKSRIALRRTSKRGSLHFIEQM
Source text: Wildtype ADGRG2 full-length (ADGRG2-FL) was cloned from mouse total cDNA libraries using the following primers: forward, […]; reverse, […], and then ADGRG2-FL, ADGRG2 C-terminal truncation mutant (ADGRG2-β), and ADGRG2-ΔGPS-β (the entire ECD of ADGRG2 was deleted) were subcloned into the pcDNA3.1 expression vector. The ADGRG2-ΔGPS-β mutants (T610A, Y611A, C614A, S661A, W662A, I663A, L665A, Y666A，N667A, F671A, L679A, L683A, I730A, V731A, F741A, F747A, W757A, I758A, N759A, S760A, V762A, F764A, Y765A, V768A, V769A, F772A, V774A, W824A, F826A, F828A, F829A, V834A, V836A, F838A, M839A, I844A, F845A) were generated using a QuikChange Mutagenesis Kit (Stratagene). All mutations were verified by DNA sequencing.
Human embryonic kidney 293 (HEK293) cells were maintained in Dulbecco’s modified Eagle’s medium supplemented with 10% fetal bovine serum, penicillin (100 IU/ml), and streptomycin (100 μg/ml) as described ([6], [38]). For receptor or other protein expression, plasmids carrying the desired genes were transfected into cells using Lipofectamine 2000 (Invitrogen).
The Glosensor cAMP assay was performed as described ([6], [39], [40]). HEK293 cells were transfected with the GloSensor plasmid and the desired expression plasmids in 24-well dishes. Twenty-four hours after transfection, the cells were plated on 96-well plates at a cell density of 20,000 cells/well. The cells were maintained in Dulbecco’s modified Eagle’s medium for another 24 h, washed with PBS, and then incubated with 100 μl of solution containing 10% fetal bovine serum, 2% (v/v) GloSensor cAMP reagent, and 88% CO2-independent medium in each well for 2 h. The cAMP signal was examined using a luminescence counter (Mithras LB 940).

[2] = molecular target: T2, Rluc-ADGRG2-ΔGPS-β F838A (mouse, UniProt Q8CJ12-3 38-995, F838A); experiment: FRET or BRET; HEK293 cells transfected with Rluc-ADGRG2-ΔGPS-β WT or mutants, stimulated by increasing concentrations of FITC-conjugated VPM-p15; saturation curves fitted with GraphPad; each experiment repeated 6 times; settings: one partner purified
T2 construct: ADGRG2 (GPR64), mouse, ADGRG2-ΔGPS-β: the entire ECD removed; source: HEK293, transfected, on cells; not shown: Rluc, N-terminal, kept
T2 sequence (Q8CJ12 other isoform, or with tags, fused parts or gaps F838A | F838A | F838A F838A): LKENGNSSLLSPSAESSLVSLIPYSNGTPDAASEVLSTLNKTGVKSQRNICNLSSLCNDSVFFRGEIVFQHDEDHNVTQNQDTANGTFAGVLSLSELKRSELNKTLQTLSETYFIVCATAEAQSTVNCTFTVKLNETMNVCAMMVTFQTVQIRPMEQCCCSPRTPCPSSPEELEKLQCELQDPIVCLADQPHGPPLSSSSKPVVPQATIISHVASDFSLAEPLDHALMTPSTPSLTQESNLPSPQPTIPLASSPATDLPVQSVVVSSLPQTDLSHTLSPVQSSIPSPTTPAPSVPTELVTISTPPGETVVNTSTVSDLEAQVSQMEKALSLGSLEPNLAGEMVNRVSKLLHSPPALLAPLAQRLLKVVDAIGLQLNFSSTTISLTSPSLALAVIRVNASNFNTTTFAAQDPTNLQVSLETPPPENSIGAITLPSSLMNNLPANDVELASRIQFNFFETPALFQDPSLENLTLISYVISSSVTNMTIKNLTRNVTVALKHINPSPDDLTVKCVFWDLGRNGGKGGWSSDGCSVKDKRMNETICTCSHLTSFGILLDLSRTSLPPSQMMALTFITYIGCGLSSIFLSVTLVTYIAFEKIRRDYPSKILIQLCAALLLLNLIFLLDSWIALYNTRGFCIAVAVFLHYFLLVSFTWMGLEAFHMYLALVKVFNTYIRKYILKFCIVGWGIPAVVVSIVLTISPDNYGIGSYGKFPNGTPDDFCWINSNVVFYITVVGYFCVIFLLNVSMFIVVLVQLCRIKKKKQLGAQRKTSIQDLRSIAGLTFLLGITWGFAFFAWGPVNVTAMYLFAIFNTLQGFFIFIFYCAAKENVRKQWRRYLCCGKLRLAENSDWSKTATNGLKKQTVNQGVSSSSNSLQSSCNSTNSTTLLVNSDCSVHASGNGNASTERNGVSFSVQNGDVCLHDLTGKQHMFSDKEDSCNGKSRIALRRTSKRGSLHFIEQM

[3] = molecular target: T3, Rluc-ADGRG2-ΔGPS-β Y611A (mouse, UniProt Q8CJ12-3 38-995, Y611A); experiment: as above; settings: one partner purified
T3 construct: ADGRG2 (GPR64), mouse, ADGRG2-ΔGPS-β: the entire ECD removed; source: HEK293, transfected, on cells; not shown: Rluc, N-terminal, kept
T3 sequence (Q8CJ12 other isoform, or with tags, fused parts or gaps Y611A | Y611A | Y611A Y611A): as the sequence (Q8CJ12 other isoform, or with tags, fused parts or gaps F838A | F838A | F838A F838A) above, with Y574A, A801F counted along it

[4] = molecular target: T4, Rluc-ADGRG2-ΔGPS-β F764A (mouse, UniProt Q8CJ12-3 38-995, F764A); experiment: as above; settings: one partner purified
T4 construct: ADGRG2 (GPR64), mouse, ADGRG2-ΔGPS-β: the entire ECD removed; source: HEK293, transfected, on cells; not shown: Rluc, N-terminal, kept
T4 sequence (Q8CJ12 other isoform, or with tags, fused parts or gaps F764A | F764A | F764A F764A): as the sequence (Q8CJ12 other isoform, or with tags, fused parts or gaps F838A | F838A | F838A F838A) above, with F727A, A801F counted along it

[5] = molecular target: T5, Rluc-ADGRG2-ΔGPS-β I741A (mouse, UniProt Q8CJ12-3 38-995, I741A); experiment: as above; settings: one partner purified
T5 construct: ADGRG2 (GPR64), mouse, ADGRG2-ΔGPS-β: the entire ECD removed; also called F741A (as the methods list it); source: HEK293, transfected, on cells; not shown: Rluc, N-terminal, kept
T5 sequence (Q8CJ12 other isoform, or with tags, fused parts or gaps I741A | I741A | I741A I741A): as the sequence (Q8CJ12 other isoform, or with tags, fused parts or gaps F838A | F838A | F838A F838A) above, with I704A, A801F counted along it

[6] = molecular target: T6, Rluc-ADGRG2-ΔGPS-β T610A (mouse, UniProt Q8CJ12-3 38-995, T610A); experiment: as above; settings: one partner purified
T6 construct: ADGRG2 (GPR64), mouse, ADGRG2-ΔGPS-β: the entire ECD removed; source: HEK293, transfected, on cells; not shown: Rluc, N-terminal, kept
T6 sequence (Q8CJ12 other isoform, or with tags, fused parts or gaps T610A | T610A | T610A T610A): as the sequence (Q8CJ12 other isoform, or with tags, fused parts or gaps F838A | F838A | F838A F838A) above, with T573A, A801F counted along it

[7] = molecular target: T7, Rluc-ADGRG2-ΔGPS-β Y666A (mouse, UniProt Q8CJ12-3 38-995, Y666A); experiment: as above; settings: one partner purified
T7 construct: ADGRG2 (GPR64), mouse, ADGRG2-ΔGPS-β: the entire ECD removed; source: HEK293, transfected, on cells; not shown: Rluc, N-terminal, kept
T7 sequence (Q8CJ12 other isoform, or with tags, fused parts or gaps Y666A | Y666A | Y666A Y666A): as the sequence (Q8CJ12 other isoform, or with tags, fused parts or gaps F838A | F838A | F838A F838A) above, with Y629A, A801F counted along it

[8] = molecular target: T8, Rluc-ADGRG2-ΔGPS-β N667A (mouse, UniProt Q8CJ12-3 38-995, N667A); experiment: as above; settings: one partner purified
T8 construct: ADGRG2 (GPR64), mouse, ADGRG2-ΔGPS-β: the entire ECD removed; source: HEK293, transfected, on cells; not shown: Rluc, N-terminal, kept
T8 sequence (Q8CJ12 other isoform, or with tags, fused parts or gaps N667A | N667A | N667A N667A): as the sequence (Q8CJ12 other isoform, or with tags, fused parts or gaps F838A | F838A | F838A F838A) above, with N630A, A801F counted along it

[9] = molecular target: T9, Rluc-ADGRG2-ΔGPS-β F845A (mouse, UniProt Q8CJ12-3 38-995, F845A); experiment: as above; settings: one partner purified
T9 construct: ADGRG2 (GPR64), mouse, ADGRG2-ΔGPS-β: the entire ECD removed; source: HEK293, transfected, on cells; not shown: Rluc, N-terminal, kept
T9 sequence (Q8CJ12 other isoform, or with tags, fused parts or gaps F845A | F845A | F845A F845A): as the sequence (Q8CJ12 other isoform, or with tags, fused parts or gaps F838A | F838A | F838A F838A) above, with A801F, F808A counted along it

[10] = molecular target: T10, Rluc-ADGRG2-ΔGPS-β Y765A (mouse, UniProt Q8CJ12-3 38-995, Y765A); experiment: as above; settings: one partner purified
T10 construct: ADGRG2 (GPR64), mouse, ADGRG2-ΔGPS-β: the entire ECD removed; source: HEK293, transfected, on cells; not shown: Rluc, N-terminal, kept
T10 sequence (Q8CJ12 other isoform, or with tags, fused parts or gaps Y765A | Y765A | Y765A Y765A): as the sequence (Q8CJ12 other isoform, or with tags, fused parts or gaps F838A | F838A | F838A F838A) above, with Y728A, A801F counted along it

[11] = molecular target: T11, Rluc-ADGRG2-ΔGPS-β V774A (mouse, UniProt Q8CJ12-3 38-995, V774A); experiment: as above; settings: one partner purified
T11 construct: ADGRG2 (GPR64), mouse, ADGRG2-ΔGPS-β: the entire ECD removed; source: HEK293, transfected, on cells; not shown: Rluc, N-terminal, kept
T11 sequence (Q8CJ12 other isoform, or with tags, fused parts or gaps V774A | V774A | V774A V774A): as the sequence (Q8CJ12 other isoform, or with tags, fused parts or gaps F838A | F838A | F838A F838A) above, with V737A, A801F counted along it

Molecule | EC50 ([1]; cAMP Glosensor, ADGRG2-ΔGPS-β, HEK293) | EC50 compared with wildtype p15 or other mutants ([1]; concentration-response curves, cAMP Glosensor, ADGRG2-ΔGPS-β) | EC50 ([1]; receptor WT (Table S4), HEK293, cAMP Glosensor) | EC50 [2] | EC50 [3] | EC50 [4] | EC50 [5] | EC50 [6] | EC50 [7] | EC50 [8] | EC50 [9] | EC50 [10] | EC50 [11]
CC[C@H](C)[C@H](NC(=O)CNC(=O)[C@H](Cc1ccc(C)cc1)NC(=O)[C@H](CO)NC(=O)[C@@H](N)C(C)C)C(=O)N[C@@H](CC(C)C)C(=O)N[C@@H](CC(C)C)C(=O)N[C@@H](CC(=O)O)C(=O)N[C@@H](CC(C)C)C(=O)N[C@@H](CO)C(=O)N[C@@H](CCCNC(=N)N)C(=O)N[C@H](C(=O)N[C@@H](CO)C(=O)N[C@@H](CC(C)C)C(=O)N1CCC[C@H]1C(=O)O)[C@@H](C)O [VPM-p15] (H-VS[Phe(4-Me)]GILLDLSRTSLP-OH) | 1.41 ± 0.16 µM | significant lower EC50 than other mutants | 1.06 µM | – | – | – | – | – | – | – | – | – | –
VS[Phe(4-Me)]GILLDLSRTSLP-{FITC′} [FITC-conjugated VPM-p15 (ADGRG2 Stachel peptide p15 T1V/F3Phe(4-Me))] | – | – | – | 0.767 µM | 0.712 µM | 1.11 µM | 0.669 µM | 1.12 µM | 0.838 µM | 0.913 µM | 1.36 µM | 0.905 µM | 1.07 µM
